Results from PMC1635305 (Nucleic Acids Research, 2006).
Read-outs that look alike come from different tables or passages of the source.

Key:
[1] = target: the molecule itself; assay: negative-stain electron microscopy single-particle reconstruction
[2] = target: the molecule itself; assay: as above; remark: listed apart in the source

B1: Methanothermobacter thermautotrophicus MCM (natural protein, UniProt O27798 1-666, looked up)
chain: MMKTVDKSKTLTKFEEFFSLQDYKDRVFEAIEKYPNVRSIEVDYLDLEMFDPDLADLLIEKPDDVIRAAQQAIRNIDRLRKNVDLNIRFSGISNVIPLRELRSKFIGKFVAVDGIVRKTDEIRPRIVKAVFECRGCMRHHAVTQSTNMITEPSLCSECGGRSFRLLQDESEFLDTQTLKLQEPLENLSGGEQPRQITVVLEDDLVDTLTPGDIVRVTGTLRTVRDERTKRFKNFIYGNYTEFLEQEFEELQISEEDEEKIKELAGDPNIYEKIIRSTAPSIHGYREVKEAIALQLFGGTGKELDDKTRLRGDIHILIVGDPGIGKSQMLKYVSKLAPRGIYTSGKGTSGVGLTAAAVRDEFGGWSLEAGALVLGDKGNVCVDELDKMREEDRSAIHEALEQQTISIAKAGIMATLNSRCSVLAAANPKFGRFDSYKSIAEQIDLPSTILSRFDLIFVVEDKPDEEKDRELARHILKTHKEDHMPFEIDPELLRKYIAYARKNVRPVLTDEAMQVLEDFYVSMRASAADEDSPVPITARQLEALVRLSEASAKIKLKEHVEAEDARKAIKLSQACLKQVGYDPETGKIDIDKVEGRTPKSERDKFRLLLELIKEYEDDYGGRAPTNILITEMMDRYNVSEEKVEELIRILKDKGAIFEPARGYLKIV
Q: B1 was tested. Which “stoichiometry N” value [1] did it give?
A: Its value is 14.

Q: And the “stoichiometry N” value [2]?
A: The value was 12.
